These results are taken from patent US20150315270A1 (CONSEJO NACIONAL DE INVESTIGATION CIENTIFICA, published 2015).

In one test the target is T1, mouse VEGF-A (mouse, UniProt Q00731-2 27-190, limits assumed).
T1 sequence (looked up): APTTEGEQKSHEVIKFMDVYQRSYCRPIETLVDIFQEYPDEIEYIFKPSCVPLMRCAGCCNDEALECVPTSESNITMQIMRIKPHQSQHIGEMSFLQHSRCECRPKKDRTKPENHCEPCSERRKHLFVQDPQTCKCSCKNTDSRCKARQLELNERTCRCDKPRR
The test is described as follows: ELISA and SPR. A general note: In an ELISA, binding on a coated surface is turned into a signal by an enzyme label.

For test [1], the target named is T2, human VEGF-A165 (human, UniProt P15692 207-395). Put plainly: cell-based or functional assay.
Test [2] deals with T2, human VEGF-A165. Put plainly: SPR, Biacore T100, kinetic analysis, 1:1 model.
The next test concerns the target T3, human VEGF-B186 (human, UniProt P49765 22-207).
T3 construct: also called Vascular endothelial growth factor antigen B
T3 sequence: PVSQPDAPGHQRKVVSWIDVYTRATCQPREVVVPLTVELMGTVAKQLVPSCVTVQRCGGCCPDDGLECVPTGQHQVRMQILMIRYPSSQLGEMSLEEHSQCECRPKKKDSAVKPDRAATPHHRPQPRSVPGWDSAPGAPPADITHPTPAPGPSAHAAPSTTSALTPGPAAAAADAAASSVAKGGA
The test is described as follows: SPR, Biacore T100, antibody (6.30-0.18 uM) injected over immobilized VEGF-B186 (4000 RU), 1:1 model. On the procedure: KA and KD respectively, were determined by kinetic analysis fitting a 1:1 interaction model using biacore T100 Evaluation software.
Background: In SPR one partner is held on a chip, and binding of the other changes the refractive index at the surface.

Test [3] addresses T2, human VEGF-A165. Put plainly: SPR, BIAcore T100, kinetic analysis, 1:1 model. As for the experimental part:
Affinity and Dissociation Constants, KA and KD, respectively, were determined by kinetic analysis fitting a 1:1 interaction model using the BIAcore T100 evaluation software.

In general, Kd refers to the concentration at which binding is half-saturated. Higher therefore signals lower affinity. Usually koff stands for a measure of how fast the partners let go of each other. Higher therefore signals a short-lived complex. In general, kon refers to a measure of how fast the partners come together. Read a low kon as slow association.

B1: mMcA-AB1-anti-VEGF-A (mouse monoclonal antibody A-AB1-anti-VEGF-A) (antibody, V domains shown)
VH: QVKLLESGPELKKPGETVKISCKASGYTFTNFGMNWVKQAPGKGLKWMGWINTNTGEPTYVDDFKGRFAFSLETSASSAYLQISNLNNEDTATYFCARYYGSTSVWYFDVWGAGTTVTVSS
VL: ELVMTQTPSSLSASLGDRVTITCRASQDIFNYLNWYQQKPDGPIKLLIYYSSRLHSGVPSRFSGSGSGTDYSLTISNLDREDIATYFCQQGFTLPWTFGGGTKLEIKR
notes: also called mMc-AB1-anti-VEGF-A; mouse AB1 antibody
With B1, the binding result with mouse VEGF-A is listed as “no binding”. In addition, in the test with human VEGF-A165 [1], the “IC50, HUVEC proliferation assay” value was around 0.011 µg/mL and the “IC50 in the HUVEC proliferation assay against that of bevacizumab” value came to 5 fold lower. In the test with human VEGF-A165 [2], this molecule showed a Kd of 5.3 pM, a koff of 9.9e-05 s⁻¹ and a kon of 1.87e+07 M⁻¹ s⁻¹. In the test with human VEGF-B186, this molecule gave a koff of 0.00571 s⁻¹ and a kon of 32800 M⁻¹ s⁻¹.

B2: hMcA-AB1-anti-VEGF-A (humanized monoclonal antibody A-AB1-anti-VEGF-A) (antibody, human IgG1, V domains shown)
VH: QVQLVQSGSELKKPGASVKVSCKASGYTFTNFGMNWVRQAPGQGLEWMGWINTNTGEPTYVDDFKGRFVFSLDTSVSTAYLQISSLKAEDTAVYYCARYYGSTSVWYFDVWGRGTLVTVSS
VL: DIQMTQSPSSLSASVGDRVTITCRASQDIFNYLNWYQQKPGKAPKLLIYYSSRLHSGVPSRFSGSGSGTDFTFTISSLQPEDIATYYCQQGFTLPWTFGQGTKVEIKR
notes: The constant regions come from the vectors pFUSE-CHIg-hG1 (human IgG1 heavy) and pFUSE2-CLIg-hk (human kappa light); also called hMcA-AB1-VEGF-A; humanized mMc-AB1-anti-VEGF-A
As for B2, the binding result in the test with mouse VEGF-A is “no binding”. Besides, in the test with human VEGF-A165 [1], the “IC50, HUVEC proliferation assay” value was around 0.019 µg/mL and the “IC50 in the HUVEC proliferation assay against that of bevacizumab” value was 3 fold lower. In the test with human VEGF-A165 [3], the Ka came out at 9.24e+09 M⁻¹, the Kd was 109 pM, the koff is 0.000421 s⁻¹ and the kon was determined as 3.83e+06 M⁻¹ s⁻¹.
